Data on 125 sequences can be found in the supplement of paper PMC9112550, “Optimization of the antimicrobial peptide Bac7 by deep mutational scanning” (BMC Biology, 2022).

This data set concerns Escherichia coli TOP10. The experiment in a line: shrunken log2 fold change of peptide-encoding DNA abundance (4.5 h post-induction vs induction); higher = less antimicrobial activity (less host growth inhibition). Conditions: time post-induction: 4.5 h; library: site-saturation at positions 5, 18, 19, 20.
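Also: peptides expressed intracellularly from a pBAD plasmid library in pooled LB shake-flask culture, induced with 0.3% L-arabinose, DNA abundance read by NGS, three biological replicates, DESeq2 with apeglm shrinkage.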

As to RRIRRRPPRLPRPRPRPADHPRP, the “shrunken log2 fold change” value was -0.115. For RRIRQRPPRLPRPRPRPSCCPRP the value was -0.408; for RRIRTRPPRLPRPRPRPWMSPRP, 0.00487. Turning to RRIRARPPRLPRPRPRPRDVPRP, the “shrunken log2 fold change” value came to 0.261.

Regarding RRIRLRPPRLPRPRPRPCFFPRP, the “shrunken log2 fold change” value was -0.13.

As to RRIRQRPPRLPRPRPRPQNVPRP, the “shrunken log2 fold change” value was -0.0161. As for RRIRERPPRLPRPRPRPVTMPRP, the “shrunken log2 fold change” value is -0.433.

As to RRIRTRPPRLPRPRPRPVSFPRP, the “shrunken log2 fold change” value was -0.114. As for RRIRARPPRLPRPRPRPPKCPRP, the figure is 0.274; as for RRIRNRPPRLPRPRPRPDMHPRP, -0.0698; as for RRIRYRPPRLPRPRPRPTTFPRP, -0.645. As for RRIRMRPPRLPRPRPRPYDLPRP, the figure is -0.242; as for RRIRYRPPRLPRPRPRPMMPPRP, -0.0554. Turning to RRIRPRPPRLPRPRPRPAVDPRP, the “shrunken log2 fold change” value turned out to be 0.249.

RRIRIRPPRLPRPRPRPGIGPRP: the “shrunken log2 fold change” value came out at 0.127.

Consider RRIRERPPRLPRPRPRPMMMPRP, for which the “shrunken log2 fold change” value was -0.182. As for RRIRIRPPRLPRPRPRPRHDPRP, the figure is -0.385; as for RRIRCRPPRLPRPRPRPDGLPRP, -0.0371. On to RRIRPRPPRLPRPRPRPMIYPRP, for which the “shrunken log2 fold change” value is -0.113. As for RRIRLRPPRLPRPRPRPITEPRP, the figure is 0.0241; as for RRIRMRPPRLPRPRPRPPAYPRP, 0.608; as for RRIRARPPRLPRPRPRPILVPRP, -0.122. For RRIRVRPPRLPRPRPRPPRDPRP the value was 0.303; for RRIRHRPPRLPRPRPRPGYKPRP, -0.00663. In the case of RRIRWRPPRLPRPRPRPMYPPRP, the “shrunken log2 fold change” value was -0.245. As for RRIRKRPPRLPRPRPRPLEQPRP, the figure is 0.0352; as for RRIRWRPPRLPRPRPRPKKNPRP, 0.341; as for RRIRCRPPRLPRPRPRPMHVPRP, 0.0371. With RRIRGRPPRLPRPRPRPTNMPRP, the “shrunken log2 fold change” value worked out at 0.316. With RRIRQRPPRLPRPRPRPGMQPRP, the “shrunken log2 fold change” value turned out to be 0.00486. As for RRIRSRPPRLPRPRPRPMEYPRP, the “shrunken log2 fold change” value is -0.00133. As to RRIRGRPPRLPRPRPRPHQCPRP, the “shrunken log2 fold change” value was -0.0129. Take RRIRYRPPRLPRPRPRPYMYPRP: the “shrunken log2 fold change” value was -0.23. As for RRIRERPPRLPRPRPRPWFFPRP, the figure is -0.358. In the case of RRIRNRPPRLPRPRPRPGTLPRP, the “shrunken log2 fold change” value was -0.0615. For RRIRTRPPRLPRPRPRPYTMPRP the value was -0.232. As for RRIRVRPPRLPRPRPRPAFDPRP, the figure is -0.339; as for RRIRARPPRLPRPRPRPVQEPRP, 0.509; as for RRIRTRPPRLPRPRPRPAFEPRP, 0.219. On to RRIRPRPPRLPRPRPRPNKLPRP, for which the “shrunken log2 fold change” value was 0.448. RRIRPRPPRLPRPRPRPFLMPRP: the “shrunken log2 fold change” value is -0.349.

For the sequence RRIRSRPPRLPRPRPRPNAAPRP, the “shrunken log2 fold change” value was 0.675. For RRIRSRPPRLPRPRPRPMWIPRP the value was -0.0694. For RRIRTRPPRLPRPRPRPELSPRP the value was -0.0448; for RRIRVRPPRLPRPRPRPPWKPRP, -0.0783. For RRIRFRPPRLPRPRPRPLTDPRP the value was -0.143; for RRIRTRPPRLPRPRPRPWCYPRP, -0.291; for RRIRPRPPRLPRPRPRPPIGPRP, 0.287.

Turning to RRIRDRPPRLPRPRPRPGKEPRP, the “shrunken log2 fold change” value is -0.0214. Take RRIRERPPRLPRPRPRPSWNPRP: the “shrunken log2 fold change” value was -0.701.

RRIRNRPPRLPRPRPRPKFRPRP: the “shrunken log2 fold change” value was determined as 0.00344.

Regarding RRIRTRPPRLPRPRPRPTGDPRP, the “shrunken log2 fold change” value stood at 0.475.

Turning to RRIRHRPPRLPRPRPRPWWLPRP, the “shrunken log2 fold change” value is -0.0295.

In the case of RRIRTRPPRLPRPRPRPISSPRP, the “shrunken log2 fold change” value is -0.0114. As for RRIRYRPPRLPRPRPRPLYDPRP, the figure is -0.51; as for RRIRKRPPRLPRPRPRPADLPRP, 0.056. For RRIRDRPPRLPRPRPRPGLQPRP, the “shrunken log2 fold change” value is 0.56. For RRIRSRPPRLPRPRPRPVGIPRP the value was -0.012; for RRIRFRPPRLPRPRPRPSWDPRP, -0.152; for RRIRCRPPRLPRPRPRPSICPRP, -0.194. In the case of RRIRKRPPRLPRPRPRPDCQPRP, the “shrunken log2 fold change” value was 0.00443. As for RRIRNRPPRLPRPRPRPLRLPRP, the figure is 0.357. As for RRIRARPPRLPRPRPRPMTAPRP, the figure is 0.433; as for RRIRGRPPRLPRPRPRPVRTPRP, 1.3; as for RRIRKRPPRLPRPRPRPPVCPRP, 0.336. In the case of RRIRNRPPRLPRPRPRPNAEPRP, the “shrunken log2 fold change” value was determined as 0.388. As for RRIRKRPPRLPRPRPRPVSQPRP, the figure is 0.147; as for RRIRQRPPRLPRPRPRPLWLPRP, 0.0736; as for RRIRKRPPRLPRPRPRPKMDPRP, 0.158. For RRIRVRPPRLPRPRPRPRPAPRP the value was 0.678; for RRIRGRPPRLPRPRPRPKDHPRP, 0.465; for RRIRERPPRLPRPRPRPTLWPRP, 0.364.

As for RRIRWRPPRLPRPRPRPLNAPRP, the “shrunken log2 fold change” value was found to be 0.438. Turning to RRIRFRPPRLPRPRPRPYNDPRP, the “shrunken log2 fold change” value was -0.641.

RRIRNRPPRLPRPRPRPPYKPRP: the “shrunken log2 fold change” value was -0.311. As for RRIRKRPPRLPRPRPRPNNYPRP, the figure is -0.259. As for RRIRGRPPRLPRPRPRPDLQPRP, the figure is 1.37.

On to RRIRYRPPRLPRPRPRPLHSPRP, for which the “shrunken log2 fold change” value is -0.803. As for RRIRTRPPRLPRPRPRPNEAPRP, the figure is 0.172; as for RRIRIRPPRLPRPRPRPSMRPRP, -0.000106; as for RRIRKRPPRLPRPRPRPVNPPRP, -0.0659. For RRIRDRPPRLPRPRPRPALCPRP the value was 0.225. For RRIRCRPPRLPRPRPRPQIPPRP the value was -0.126. In the case of RRIRKRPPRLPRPRPRPTTIPRP, the “shrunken log2 fold change” value is 0.259.

Take RRIRNRPPRLPRPRPRPHLIPRP: the “shrunken log2 fold change” value was -0.00549.

Turning to RRIRSRPPRLPRPRPRPCMHPRP, the “shrunken log2 fold change” value is -0.514. For RRIRERPPRLPRPRPRPEMEPRP the value was -0.0231; for RRIRRRPPRLPRPRPRPWSAPRP, 0.131. For RRIRNRPPRLPRPRPRPNQTPRP the value was -0.0303. As for RRIRCRPPRLPRPRPRPLVGPRP, the “shrunken log2 fold change” value was 3.69. For RRIRRRPPRLPRPRPRPAEKPRP the value was 0.225; for RRIRDRPPRLPRPRPRPEPWPRP, 0.32; for RRIRIRPPRLPRPRPRPQRCPRP, -0.0109. As to RRIRGRPPRLPRPRPRPWPNPRP, the “shrunken log2 fold change” value is -0.0526. As for RRIRLRPPRLPRPRPRPTEMPRP, the figure is 0.037.

RRIRCRPPRLPRPRPRPAIDPRP: the “shrunken log2 fold change” value is -0.0121.

Regarding RRIRQRPPRLPRPRPRPELPPRP, the “shrunken log2 fold change” value was -0.0769. Consider RRIRSRPPRLPRPRPRPSHKPRP, for which the “shrunken log2 fold change” value was -0.658. As to RRIRQRPPRLPRPRPRPAWMPRP, the “shrunken log2 fold change” value is 0.0361. For RRIRLRPPRLPRPRPRPFELPRP the value was -0.519.

Regarding RRIRYRPPRLPRPRPRPVKMPRP, the “shrunken log2 fold change” value was -0.392. Take RRIRMRPPRLPRPRPRPQRVPRP: the “shrunken log2 fold change” value came to 1.27. In the case of RRIRLRPPRLPRPRPRPMYMPRP, the “shrunken log2 fold change” value was -0.295. In the case of RRIRGRPPRLPRPRPRPDQLPRP, the “shrunken log2 fold change” value came to 0.719. With RRIRRRPPRLPRPRPRPVRQPRP, the “shrunken log2 fold change” value stood at 0.874. As for RRIRNRPPRLPRPRPRPAMHPRP, the “shrunken log2 fold change” value was -0.273. For RRIRVRPPRLPRPRPRPLTEPRP the value was -0.503. As for RRIRIRPPRLPRPRPRPVPSPRP, the “shrunken log2 fold change” value was -0.217.

Consider RRIRQRPPRLPRPRPRPDGDPRP, for which the “shrunken log2 fold change” value is -0.0112.

As for RRIRMRPPRLPRPRPRPTTLPRP, the “shrunken log2 fold change” value worked out at 0.34. For RRIRLRPPRLPRPRPRPRAFPRP the value was 0.25; for RRIRYRPPRLPRPRPRPGIWPRP, 0.138. Turning to RRIRSRPPRLPRPRPRPKDMPRP, the “shrunken log2 fold change” value is -0.123. Consider RRIRIRPPRLPRPRPRPCTNPRP, for which the “shrunken log2 fold change” value is -0.0668. In the case of RRIRARPPRLPRPRPRPLALPRP, the “shrunken log2 fold change” value was 0.668. For RRIRGRPPRLPRPRPRPGEVPRP, the “shrunken log2 fold change” value was found to be 1.2. Take RRIRTRPPRLPRPRPRPKQRPRP: the “shrunken log2 fold change” value was found to be 0.166. As for RRIRFRPPRLPRPRPRPEHEPRP, the figure is 0.0369. For the sequence RRIRNRPPRLPRPRPRPETDPRP, the “shrunken log2 fold change” value was -0.05. For RRIRVRPPRLPRPRPRPSYEPRP the value was -0.298; for RRIRHRPPRLPRPRPRPEPFPRP, 0.0638.

Take RRIRWRPPRLPRPRPRPWIGPRP: the “shrunken log2 fold change” value amounted to 0.0176.

Take RRIRQRPPRLPRPRPRPESNPRP: the “shrunken log2 fold change” value is -0.257.

For the sequence RRIRDRPPRLPRPRPRPTQSPRP, the “shrunken log2 fold change” value came out at 0.439. As for RRIRPRPPRLPRPRPRPNTNPRP, the figure is -0.329.
